Source: paper PMC3887256

Target: TAP-tagged human presenilin 1 (human) (UniProt P49768)
Experiment: SEC-MALS; TAP-purified PS1 complex on Superdex S-200 10/300 in Tris buffer with 0.1% digitonin; protein and detergent masses by conjugate analysis; complex co-purified from cells

stoichiometry N: 1
Substance: anterior pharynx 1 (aph1) (from UniProt Q96BI3 1-265) (natural protein)
